Assay results from US20230181756A1 (Novartis, published 2023).

B1: 684E12 non-humanized CysMab (antibody, human IgG1, kappa, V domains shown)
VH: EVHLVESGGGLVKPGGSLKLSCAASGFTFSNFAMSWVRQTPEKRLEWVATISTGGTYTYYPDSVKGRFTISRDNAKKTLYLQMSSLRSEDTAMYYCTRRGYDGVDKWGQGTTLTVSS
VL: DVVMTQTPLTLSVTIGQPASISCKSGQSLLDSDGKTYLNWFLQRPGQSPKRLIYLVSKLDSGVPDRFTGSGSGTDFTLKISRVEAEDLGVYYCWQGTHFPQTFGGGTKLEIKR
notes: Chimeric human IgG1 kappa with CysMab cysteines and wild type Fc; also called Parental 684E12 hIgG1 CysMab; Non-humanized CysMab antibody 684E12
B2: Humanized 674J13.CysMab.DAPA (antibody, human IgG1, kappa, V domains shown)
VH: DVQLQESGPGLVKPSQTLSLTCTVSGYSITSGYSWHWIRQHPGKGLEWMAHIHSSGSTNYNPSLKSRITISRDTSKNQFSLKLSSVTAADTAVYYCARGGVQAFAYWGQGTLVTVSS
VL: EIVLTQSPATLSASPGERVTMSCSASSSVIYMHWYQQKPGQAPRRWIYDTSKLASGVPARFSGSGSGTDYTLTISSMEPEDAAVYYCQQWSSNPLTFGQGTKLEIKR
notes: Human IgG1 kappa with D265A/P329A and CysMab cysteines; also called 674J13 (Humanized, CysMab DAPA)
B3: Humanized 121G12.CysMab.DAPA (antibody, human IgG1, kappa)
heavy: EVQLVESGGGLVKPGGSLRLSCAASGFTFSTYAMSWVRQAPGKGLEWVATISDAGSYSYYPDNVKGRFTISRDNAKNSLYLQMNSLRAEDTAVYYCARRGSRYEEYYVMDYWGQGTTVTVSSASTKGPSVFPLAPSSKSTSGGTAALGCLVKDYFPCPVTVSWNSGALTSGVHTFPAVLQSSGLYSLSSVVTVPSSSLGTQTYICNVNHKPSNTKVDKRVEPKSCDKTHTCPPCPAPELLGGPSVFLFPPKPKDTLMISRTPEVTCVVVAVSHEDPEVKFNWYVDGVEVHNAKTKPREEQYNSTYRVVSVLTVLHQDWLNGKEYKCKVSNKALAAPIEKTISKAKGQPREPQVYTLPPSREEMTKNQVSLTCLVKGFYPCDIAVEWESNGQPENNYKTTPPVLDSDGSFFLYSKLTVDKSRWQQGNVFSCSVMHEALHNHYTQKSLSLSPGK
light: EIVLTQSPATLSVSPGERVTLSCRASQSISNNLHWYQQKPGQAPRLLIKYASQSISGIPARFSGSGSGTDFTLTISSVEPEDFGVYFCQQSSSWLTFGQGTKLEIKRTVAAPSVFIFPPSDEQLKSGTASVVCLLNNFYPREAKVQWKVDNALQSGNSQESVTEQDSKDSTYSLSSTLTLSKADYEKHKVYACEVTHQGLSSPVTKSFNRGEC
notes: Human IgG1 kappa with D265A/P329A and CysMab cysteines; also called 121G12 (Humanized CysMab, DAPA)
B4: 121G12.DAPA.sSPDB.DM4 (antibody, human IgG1, kappa)
heavy: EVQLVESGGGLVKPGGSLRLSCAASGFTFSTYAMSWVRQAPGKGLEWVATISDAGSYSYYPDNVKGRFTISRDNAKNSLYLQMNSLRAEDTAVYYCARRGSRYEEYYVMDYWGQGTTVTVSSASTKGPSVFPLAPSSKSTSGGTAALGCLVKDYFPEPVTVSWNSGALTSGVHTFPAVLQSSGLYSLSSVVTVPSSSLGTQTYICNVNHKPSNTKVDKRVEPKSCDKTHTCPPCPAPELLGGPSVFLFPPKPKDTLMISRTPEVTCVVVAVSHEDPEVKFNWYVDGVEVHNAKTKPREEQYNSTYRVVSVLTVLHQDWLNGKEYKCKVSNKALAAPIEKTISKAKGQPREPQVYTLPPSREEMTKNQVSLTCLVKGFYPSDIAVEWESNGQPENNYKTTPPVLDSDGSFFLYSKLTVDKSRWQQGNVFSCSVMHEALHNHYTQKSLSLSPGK
light: B3 light
modifications: sulfo-SPDB-DM4 on endogenous lysines (sites not defined, may also be on the light chain); DAR 3.6 in Example 4B, DAR 3.9 in Tables 20 and 21
notes: also called 121G12.sSPDB.DM4

Assays:
[1] = target: T1, human CCR7 (human, UniProt P32248 25-378); test: FACS titration, Jeko-1 cancer cells (CCR7+)
T1 construct: The assay field tells which; also called hCCR7; NIH3T3.hCCR7
T1 sequence: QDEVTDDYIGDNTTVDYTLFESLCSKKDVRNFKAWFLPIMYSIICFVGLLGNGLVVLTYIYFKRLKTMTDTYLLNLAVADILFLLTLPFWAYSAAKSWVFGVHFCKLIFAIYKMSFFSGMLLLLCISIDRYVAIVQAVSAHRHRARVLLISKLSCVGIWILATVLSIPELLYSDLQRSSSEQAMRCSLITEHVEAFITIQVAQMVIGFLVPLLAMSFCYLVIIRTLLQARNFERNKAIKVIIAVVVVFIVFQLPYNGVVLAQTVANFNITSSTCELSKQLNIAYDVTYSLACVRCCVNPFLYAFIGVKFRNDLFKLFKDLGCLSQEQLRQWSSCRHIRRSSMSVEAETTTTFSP

[2] = target: T2, mouse CCR7 (mouse, UniProt P47774 25-378); test: FACS titration, NIH3T3 cells expressing mouse CCR7
T2 construct: also called NIH3T3.mouse CCR7
T2 sequence: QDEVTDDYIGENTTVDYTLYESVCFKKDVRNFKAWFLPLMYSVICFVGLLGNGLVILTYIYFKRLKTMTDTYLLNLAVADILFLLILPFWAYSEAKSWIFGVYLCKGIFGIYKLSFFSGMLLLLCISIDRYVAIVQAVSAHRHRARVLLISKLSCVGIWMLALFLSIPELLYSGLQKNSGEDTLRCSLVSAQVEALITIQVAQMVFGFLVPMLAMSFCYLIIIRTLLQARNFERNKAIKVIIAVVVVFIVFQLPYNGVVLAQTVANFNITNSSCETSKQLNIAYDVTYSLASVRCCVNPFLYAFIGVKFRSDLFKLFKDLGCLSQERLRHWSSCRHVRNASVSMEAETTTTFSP

[3] = target: T1, human CCR7; test: FACS titration, NIH3T3 cells expressing human CCR7
[4] = target: T3, rat CCR7 (rat, UniProt P47774 25-378 (mouse entry)); test: FACS titration, NIH3T3 cells expressing rat CCR7
T3 construct: also called NIH3T3.rat CCR7
T3 chain: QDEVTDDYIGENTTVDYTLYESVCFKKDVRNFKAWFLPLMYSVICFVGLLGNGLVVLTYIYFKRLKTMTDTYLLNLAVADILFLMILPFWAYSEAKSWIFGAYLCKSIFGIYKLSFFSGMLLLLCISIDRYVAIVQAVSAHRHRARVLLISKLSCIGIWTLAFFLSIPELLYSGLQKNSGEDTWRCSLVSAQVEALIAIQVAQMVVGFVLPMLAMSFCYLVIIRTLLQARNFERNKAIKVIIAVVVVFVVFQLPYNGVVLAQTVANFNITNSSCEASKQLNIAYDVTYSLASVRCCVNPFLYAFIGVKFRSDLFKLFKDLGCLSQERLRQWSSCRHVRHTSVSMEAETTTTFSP

[5] = target: T1, human CCR7; test: cell-based or functional assay
[6] = target: T1, human CCR7; test: cell-based or functional assay; remark: listed apart in the source
[7] = target: T1, human CCR7; test: FACS on DEL cells, antibody titrated to 100 nM together with a constant 1 uM CCL19 (competitor), panel 'ligand 1uM', anti-hFc.PE detection
[8] = target: T1, human CCR7; test: FACS titration, DEL cancer cells (receptor density ~100,000)
[9] = target: T1, human CCR7; test: FACS titration, NIH3T3.hCCR7 cells (receptor density >1,000,000)
[10] = target: T4, recombinant hCCR7 (Origene #TP306614) (human, UniProt P32248 25-378, limits assumed); test: ELISA on plate-coated recombinant hCCR7, antibody titrated, anti-hFc-HRP detection, OD 650 nm
T4 construct: Bought protein coated on ELISA plates; also called recombinant CCR7
T4 sequence (looked up): T1 sequence

[11] = target: T1, human CCR7; test: FACS on DEL cells, antibody titrated to 100 nM, panel 'ligand 0uM' (no CCL19), anti-hFc.PE detection
[12] = target: T1, human CCR7; test: FACS titration, human CD4+ T cells (receptor density <2,000)
[13] = target: T4, recombinant hCCR7 (Origene #TP306614); test: ELISA, recombinant CCR7 coated at 3.5 ug/ml, antibody titrated
[14] = target: T1, human CCR7; test: FACS binding on CCR7 expressing cells, against the unconjugated antibody
[15] = target: T1, human CCR7; test: FACS titration, DEL cells (CCR7 receptor levels >=100,000)
[16] = target: T1, human CCR7; test: cell-based or functional assay; remark: listed apart in the source

| Binder | pHrodo (6 h MFI), internalization, CD4+ T cells (receptor numbers 2000) [6] | pHrodo (6 h MFI), internalization, CMLT1 cells (receptor numbers 19583) [6] | pHrodo (6 h MFI), internalization, DEL cells (receptor numbers 110685) [6] | pHrodo (6 h MFI), internalization, JVM3 cells (receptor numbers 8717) [6] | pHrodo (6 h MFI), internalization, Jeko-1 cells (receptor numbers 28852) [6] | pHrodo (6 h MFI), internalization, KE97 cells (receptor numbers 152093) [6] | pHrodo (6 h MFI), internalization, L540 cells (receptor numbers 167549) [6] | pHrodo (6 h MFI), internalization, L1236 cells (receptor numbers 61602) [6] | pHrodo (6 h MFI), internalization, MJ cells (receptor numbers 111121) [6] | pHrodo (6 h MFI), internalization, MOTN1 cells (receptor numbers 84200) [6] | pHrodo (6 h MFI), internalization, Mec2 cells (receptor numbers 50840) [6] | EC50 [8] | EC50 [9] | EC50 (read off the curve) [10] | EC50 [12] | Kd [13] | other results |
| --- | --- | --- | --- | --- | --- | --- | --- | --- | --- | --- | --- | --- | --- | --- | --- | --- | --- |
| B1 |  |  |  |  |  |  |  |  |  |  |  |  |  |  |  |  | EC50 [1]: 12 nM; binding result [2]: no binding; EC50 [3]: > 30 nM; binding result [4]: no binding; ADCC activity; IC50 (nM); reporter assay, JVM2 targets and Jurkat-V158 effectors [5]: 2.63 nM |
| B2 | 402 MFI | 561 MFI | 3780 MFI | 146 MFI | 1390 MFI | 4420 MFI | 11800 MFI | 5820 MFI | 3260 MFI | 2540 MFI | 3000 MFI | 0.47 nM | 0.64 nM | ~0.07 nM | ~2 nM | 0.006 nM | EC50 (read off the curve) [7]: ~2 nM; EC50 (read off the curve) [11]: ~2 nM |
| B3 | 278 MFI | 301 MFI | 1910 MFI | 148 MFI | 450 MFI | 1570 MFI | 6840 MFI | 1240 MFI | 1650 MFI | 1030 MFI | 1340 MFI | 1.78 nM | 2.5 nM | ~0.6 nM | ~30 nM | 0.677 nM |  |
| B4 |  |  |  |  |  |  |  |  |  |  |  |  |  |  |  |  | difference of geometric mean fluorescence intensity from the unconjugated antibody [14]: ≤ 20%; EC50 [15]: 8.42 nM; ADC activity in cell viability assay; IC50 (nM); DEL cells [16]: 2.98 nM; ADC activity in cell viability assay; IC50 (nM); KE97 cells [16]: 3.18 nM; ADC activity in cell viability assay; IC50 (nM); L540 cells [16]: 3.9 nM |
